Results taken from patent US20110024630A1, “System, Device, and Methods for Real-Time Screening of Live Cells, Biomarkers, and Chemical Signatures” (BATTELLE MEMORIAL INSTITUTE, priority 2009, published 2011).

System: JB6 carcinogenesis mouse endothelial model cells
Assay: Real-time ATR-FTIR monitoring of confluent cells treated with tumor promoter (bFGF)
Format: cell-based
Conditions: 72-hour time point, bFGF added at 48 hours
Protocol: Spent media was replaced with fresh media at 24-hour intervals. Cells were confluent at 24 hours and had attached to the ATR substrate. […] The 1604 cm^−1 band also contains a broad water band which is observed at the 6.5 hour time point where there is greater media contact with the ATR substrate due to a non-confluent cell monolayer. […] Tyrosine aromatic rings absorb in the 1508 cm^−1 region and the symmetric carboxylate stretching vibrations are reflected in the band at 1452 cm^−1. Overall, data reflect the ability to obtain spectra over a period of days which show the attachment of cells to the substrate and a response to perturbation.
Mouse cells (JB6 carcinogenesis mouse endothelial model cells) (clone 41-5a, ATCC, Manassas, Va., USA) were maintained in a minimal essential medium (MEM+GlutaMAX-I™, CISCO, Grand Island, N.Y.) supplemented with 5% fetal bovine serum (FBS) (Atlanta Biologicais, Norcross, Ga.) that further included: 1% penicillin/streptomycin (GIBCO, Grand Island, N.Y.) and an additional 1%. GlutaMAX-I™ (GIBCO, Grand Island, N.Y.). Cells were maintained at 37° C. and 5% CO2 in an incubator (e.g., a ThermoForma Series II Water Jacketed CO2 incubator. Thermo Fisher Scientific, inc., Waltham, Mass.) equipped with a HEPA filter. The JB6 cells were subcultured at 70-80% confluency following standard protocols. […]

**Q.** basic fibroblast growth factor [bFGF] was tested. Which “cell outcome to which spectral results are attributed” value did it give?
**A.** cell death

**Q.** What about the “1696 cm^-1 amide peak” value (FIG. 7b) of the same substance?
**A.** increased intensity and has broadened
